T1: human TREM2 on cells (human, UniProt Q9NZC2 19-230)
T1 sequence: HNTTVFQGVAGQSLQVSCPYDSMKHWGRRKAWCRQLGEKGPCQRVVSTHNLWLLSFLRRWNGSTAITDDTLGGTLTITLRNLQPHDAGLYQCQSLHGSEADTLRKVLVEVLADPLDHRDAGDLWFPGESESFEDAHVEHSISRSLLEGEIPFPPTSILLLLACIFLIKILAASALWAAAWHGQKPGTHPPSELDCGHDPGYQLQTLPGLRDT

T2: soluble human TREM2 protein (TREM2 ECD-huIgG1 Fc fusion protein) (human, UniProt Q9NZC2 19-174, biotinylated)
T2 construct: also called biotinylated soluble human TREM2 protein
T2 sequence: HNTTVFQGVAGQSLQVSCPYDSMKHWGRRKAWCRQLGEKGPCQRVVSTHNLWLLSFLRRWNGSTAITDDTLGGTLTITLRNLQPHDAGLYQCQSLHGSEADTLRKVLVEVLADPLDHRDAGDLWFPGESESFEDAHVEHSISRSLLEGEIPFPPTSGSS

T3: human TREM2 (human, UniProt Q9NZC2 19-174, limits assumed)
T3 sequence: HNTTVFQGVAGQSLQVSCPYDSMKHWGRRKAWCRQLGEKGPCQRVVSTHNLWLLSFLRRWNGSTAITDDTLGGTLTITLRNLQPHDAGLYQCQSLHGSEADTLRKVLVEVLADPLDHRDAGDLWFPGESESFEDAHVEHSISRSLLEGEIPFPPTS


Assays:
[1] = biological target: T1, human TREM2 on cells; assay: cell-based or functional assay
[2] = biological target: T2, soluble human TREM2 protein (TREM2 …); assay: ELISA, hybridoma supernatant on captured biotinylated TREM2 ECD-Fc
Protocol: Exhausted hybridoma supernatants were tested for binding to human TREM2 by ELISA. Briefly, neutravidin plates were generated by incubating a 384 well Corning Assay Plate 3702 with neutravidin (Thermo 3100B) at 10 μg/mL (40 μL/well) in 1× PBS at 4° C. overnight. The plates were washed with 1× PBS using a Biotek plate washer and then blocked with 1% milk/1× PBS (90 μL/well) at room temperature (RT) for 30 minutes. The plates were then washed again with 1× PBS using the plate washer. […] The plates were then incubated at RT for 1 hour to immobilize the TREM2 protein to the wells of the plates. Following the incubation, the plates were again washed with 1× PBS using the plate washer. 10 μL of each hybridoma supernatant to be tested and 40 μL of 1% milk/1× PBS (1:5 dilution) were added to each well of the plates and incubated at RT for 1 hour. Again, the plates were washed with 1× PBS using the plate washer. […] After the plates were washed with 1× PBS using the plate washer, 40 μL/well of TMB substrate (Neogen, lot #150114) was added to the plates and the plates were incubated at RT for 30 minutes. The reaction was quenched with 1N hydrochloric acid (40 uL/well) following the incubation period. OD readings at 450 nm were obtained with a plate reader.

[3] = biological target: T3, human TREM2; assay: yeast-displayed Fab FACS, 2nd screen 10 nM
[4] = biological target: T3, human TREM2; assay: yeast-displayed Fab FACS, 2nd screen 2 nM
[5] = biological target: T3, human TREM2; assay: yeast-displayed Fab FACS, 1st screen 10 nM

Row | Binder | pSyk EC50 [1] | OD 450 [2] | binding signal fold over 6E7 parental [3] | binding signal fold over 6E7 parental [4] | binding signal fold over 6E7 parental [5]
1 | 14C12 (antibody, human IgG2, V domains shown, human IgG2 from hybridoma) VH: EVQLVQSGAEVKKPGESLMISCKGSGYSFTSYWIGWVRQMPGKGLEWMGIIYPGDSDTRYSPSFQGQVTISADKSISTAYLQWSSLKASDTAMYFCARRRQGIWGDALDFWGQGTLVTVSS VL: EIVMTQSPATLSVSPGERATLSCRASQSVSSNLAWFQQKPGQAPRLLIYGASTRATGIPARFSVSGSGTEFTLTISSLQSEDFAVYYCLQDNNWPPTFGPGTKVDIK | 0.4 nM | 0.71 OD450 |  |  | 
2 | V73 (Fab, V domains shown) VH: EVQLVQSGAEVKKPGESLKISCKGSGYSFGSYWIAWVRQMPGKGLEWMGIIYPGDSDTRYSPGFQGQVTISADKSISTAYLQWSSLKASDTAMYFCARGRTFYYDSSDYFDYWGQGTLVTVSS VL: DIQMTQSPSSVSASVGDRVTITCRASQGISSWLAWYQQKPGKAPKLLIYAASSRQNGVPSRFSGSGSGTDFTLTISSLQPEDFATYFCQQADSYPRTFGQGTKLEIK |  |  | 5.44 fold | 4.17 fold | 5.12 fold
3 | V75 (Fab, V domains shown) VH: EVQLVQSGAEVKKPGESLKISCKGSGYSFTSYWIAWVRQMPGKGLEWMGIIYPGDSDTRYSPSFQGQVTISADKSISTAYLQWSSLKASDTAMYFCARGRTFYYDSSDYFDYWGQGTLVTVSS VL: DIQMTQSPSSVSASVGDRVTITCRASQGISSWLAWYQQKPGKAPKLLIYAASSLQAGVPSRFSGSGSGTDFTLTISSLQPEDFATYFCQQADSYPRTFGQGTKLEIK |  |  | 4.52 fold | 3.74 fold | 4.64 fold
4 | V76 (Fab, V domains shown) VH: EVQLVQSGAEVKKPGESLKISCKGSGYSFGSYWIAWVRQMPGKGLEWMGIIYPGDSDTRYSPEFQGQVTISADKSISTAYLQWSSLKASDTAMYFCARQRTFYYDSSDYSDYWGQGTLVTVSS VL: DIQMTQSPSSVSASVGDRVTITCRASQGISSWLAWYQQKPGKAPKLLIYAASSLQKGVPSRFSGSGSGRDFTLTISSLQPEDFATYFCQQADSFPRTFGQGTKLEIK |  |  | 4.93 fold | 4.34 fold | 4.57 fold
5 | V74 (Fab, V domains shown) VH: EVQLVQSGAEVKKPGESLKISCKGSGYSFASYWIAWVRQMPGKGLEWMGIIYPGDSDVRYSPSFQGQVTISADKSISTAYLQWSSLKASDTAMYFCARGRTFYYDSSDYFDYWGQGTLVTVSS VL: DIQMTQSPSSVSASVGDRVTITCRASQGISSWLAWYQQKPGKAPKLLIYAASSLQLGVPSRFSGSGSGTDFTLTISSLQPEDFATYFCQQADSFPRTFGQGTKLEIK |  |  | 4.01 fold | 2.54 fold | 3.94 fold
6 | V87 (Fab, V domains shown) VH: EVQLVQSGAEVKKPGESLKISCKGSGYSFRSYWIAWVRQMPGKGLEWMGIIYPGDSDVRYSPDFQGQVTISADKSISTAYLQWSSLKASDTAMYFCARSRTFYYDSSDYFDYWGQGTLVTVSS VL: DIQMTQSPSSVSASVGDRVTITCRASQGISSWLAWYQQKPGKAPKLLIYAASSLQWGVPSRFSGSGSGTDFTLTISSLQPEDFATYFCQQADSFPRTFGQGTKLEIK |  |  | 3.93 fold | 4.86 fold | 3.84 fold

Second part, the binder after the results:

Row | pSyk EC50 [1] | OD 450 [2] | binding signal fold over 6E7 parental [3] | binding signal fold over 6E7 parental [4] | binding signal fold over 6E7 parental [5] | Binder
7 | 0.4 nM |  |  |  |  | 12G10 (antibody, human IgG2, V domains shown) VH: EVQLLESGGGLVQPGGSLRLSCAASGFTFSSYAMSWVRQAPGKGLEWVSAIGGGGVSTYCADSVKGRFTISRDNSKNTLYLQMNSLRAEDTAVYYCAKFYIAVAGSHFDYWGQGTLVTVSS VL: QAVPTQPSSLSASPGVLASLTCTLRSGINVGTYRIYWYQQKPGSPPQYLLRYKSDSDKQQGSGVPSRFSGSKDASANAGILLISGLQSEDEADYYCMIWYSSAVVFGGGTKLTVL
8 |  |  | 1.46 fold | 0.94 fold | 1.33 fold | V89 (Fab, V domains shown) VH: EVQLVQSGAEVKKPGESLKISCKGSGYSFTSYWIAWVRQMPGKGLEWMGIIYPGDSDTRYSPSFQGQVTISADKSISTAYLQWSSLKASDTAMYFCARQRTFYYDSSDYFDYWGQGTLVTVSS VL: DIQMTQSPSSVSASVGDRVTITCRASQGISSWLAWYQQKPGKAPKLLIYAASSLQNGVPSRFSGSGSGTDFTLTISSLQPEDFATYFCQQADSHPRTFGQGTKLEIK
9 |  |  | 1.62 fold | 1.45 fold | 1.44 fold | V84 (Fab, V domains shown) VH: EVQLVQSGAEVKKPGESLKISCKGSGYGFTSYWIAWVRQMPGKGLEWMGIIYPGDSDTRYSPSFQGQVTISADKSISTAYLQWSSLKASDTAMYFCARQRTFYYDSSDYSDYWGQGTLVTVSS VL: DIQMTQSPSSVSASVGDRVTITCRASQGISSWLAWYQQKPGKAPKLLIYGASSLQNGVPSRFSGSGSGTDFTLTISSLQPEDFATYFCQQADSFPRTFGQGTKLEIK
10 |  |  | 1.38 fold | 0.83 fold | 1.43 fold | V77 (Fab, V domains shown) VH: EVQLVQSGAEVKKPGESLKISCKGSGYSFTSYWIAWVRQMPGKGLEWMGIIYPGDSDTRYSPSFQGQVTISADKSISTAYLQWSSLKASDTAMYFCARQRTFYYDSSDYFDYWGQGTLVTVSS VL: DIQMTQSPSSVSASVGDRVTITCRASQGISSWLAWYQQKPGKAPKLLIYAASSRQNGVPSRFSGSGSGTDFTLTISSLQPEDFATYFCQQADSFPRTFGQGTKLEIK
11 |  |  | 5.02 fold | 5.17 fold | 4.8 fold | V86 (Fab, V domains shown) VH: EVQLVQSGAEVKKPGESLKISCKGSGYSFGSYWLAWVRQMPGKGLEWMGIIYPGDSDTRYSPSFEGQVTISADKSISTAYLQWSSLKASDTAMYFCARSRTFYYDSSDYFDYWGQGTLVTVSS VL: DIQMTQSPSSVSASVGDRVTITCRASQGISSWLAWYQQKPGKAPKLLIYAASSRQNGVPSRFSGSGSGTDFTLTISSLQPEDFATYFCQQADSFPRTFGQGTKLEIK
12 |  |  | 5.37 fold | 5.41 fold | 5.41 fold | V85 (Fab, V domains shown) VH: EVQLVQSGAEVKKPGESLKISCKGSGYSFRSYWIAWVRQMPGKGLEWMGTIYPGDSDTRYSPSFQGQVTISADKSISTAYLQWSSLKASDTAMYFCARSRTFYYDSSDYFDYWGQGTLVTVSS VL: DIQMTQSPSSVSASVGDRVTITCRASQGISSWLAWYQQKPGKAPKLLIYAASSRQNGVPSRFSGSGSGTDFTLTISSLQPEDFATYFCQQADSFPRTFGQGTKLEIK
13 |  |  | 5.3 fold | 5.57 fold | 4.92 fold | V88 (Fab, V domains shown) VH: EVQLVQSGAEVKKPGESLKISCKGSGYSFGSYWIAWVRQMPGKGLEWMGIIYPGDSDTRYSPSFQGQVTISADKSISTAYLQWSSLKASDTAMYFCARQRTFYYDSSDYFDYWGQGTLVTVSS VL: DIQMTQSPSSVSASVGDRVTITCRASQGISSWLAWYQQKPGKAPKLLIYAASRLQRGVPSRFSGSGSGTDFTLTISSLQPEDFATYFCQQADSSPRTFGQGTKLEIK
